Assay results as given in the supplement of paper PMC9732359.
± gives the uncertainty stated by the source.

Assay: protein stability index of a GFP-peptide fusion (yeast GPS) (PSI 1-4); higher = more stable; sorted into four equal gates, so the index is relative within each strain
Procedure, shortened: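 Peptides tiling yeast proteins in 17-residue segments were fused downstream of GFP, with Cherry expressed from the same plasmid. As a pooled library in yeast, mid-log cultures grown in leucine-free medium were sorted into four equal gates by GFP/Cherry fluorescence ratio. Gate plasmids were PCR-amplified and Illumina-sequenced, and barcodes linked reads to strains. Each peptide received a protein stability index equal to the sum of each gate's read frequency times its gate number.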

Row | Sequence | protein stability index (doa10∆) | protein stability index (pdr5∆) | protein stability index (san1∆) | protein stability index (ubr1∆)
1 | REVENSVSLLNSDIANL [SMC1] | 2.8 ± 0.063 | 2.59 ± 0.077 | 2.99 ± 0.07 | 2.86 ± 0.072
2 | RFDAQTGSDREVQRILI [RPT3] | 3.09 ± 0.12 | 3.08 ± 0.14 | 3.43 ± 0.1 | 3.4 ± 0.16
3 | RFKMERAGVTHVLSRLS [RET1] | – | 1.55 ± 0.18 | 1.2 ± 0.27 | 1.3 ± 0.23
4 | RFNAKVSMVKRAIDSLI [CDC53] | 1.86 ± 0.071 | 2.12 ± 0.074 | 2.17 ± 0.12 | 2 ± 0.042
5 | RFRGKRVVYLKHLEDNT [RPL6A] | 2.21 ± 0.068 | 2.37 ± 0.053 | 2.15 ± 0.1 | 2.31 ± 0.049
6 | RFSPDEDFEHNNLSSMN [MCD1] | 2.69 ± 0.094 | 3.35 ± 0.18 | 3.09 ± 0.091 | 3.18 ± 0.074
7 | RFVMPNQLLAALVAYTP [RRP6] | 1.83 ± 0.041 | 1.84 ± 0.045 | 1.39 ± 0.07 | 1.71 ± 0.032
8 | RFYELEESLTVLNCLRT [YJR042W/NUP85] | 2 ± 0.14 | 2.25 ± 0.12 | 1.7 ± 0.29 | 2.62 ± 0.11
9 | RGAWGKPHGLAARVDIG [RPL10] | 2.59 ± 0.064 | 1.99 ± 0.04 | 1.68 ± 0.08 | 2.35 ± 0.037
10 | RGKDGKLHVAAKLPGHK [YGL100W/SEH1] | 3.31 ± 0.14 | 3.13 ± 0.14 | – | 2.7 ± 0.16
11 | RGTDIDRINYTETALMN [SRB5] | 3.02 ± 0.26 | 2.98 ± 0.11 | 2.69 ± 0.082 | 2.73 ± 0.12
12 | RGVTKVGFGESNFTSII [SMC1] | 3.56 ± 0.19 | 3.33 ± 0.11 | 3.09 ± 0.15 | 3.08 ± 0.08
13 | RHIKSKHEDLSLEQRQE [RPN4] | 2.97 ± 0.069 | 3.05 ± 0.086 | 2.79 ± 0.096 | 3.03 ± 0.066
14 | RHTTGTGRMRYLKHVSR [RPL37A] | 3.14 ± 0.11 | 3.26 ± 0.081 | 3.55 ± 0.081 | 3.1 ± 0.11
15 | RIANIEQNHLDNNYNTA [YDL088C/ASM4] | 3.11 ± 0.065 | 3.18 ± 0.071 | 3.08 ± 0.044 | 3.03 ± 0.064
16 | RIGVLQARMMQQQSADH [NSL1] | 2.88 ± 0.062 | 3.06 ± 0.057 | 3.06 ± 0.046 | 2.96 ± 0.042
17 | RIHRLARYYRTVAVLPP [RPS13] | 1.83 ± 0.088 | 1.8 ± 0.06 | 2.44 ± 0.074 | 2.11 ± 0.046
18 | RIHVNPSYYGVRDTSPH [BRR2] | 1.96 ± 0.1 | 1.93 ± 0.072 | 1.74 ± 0.085 | 1.9 ± 0.058
19 | RIKEMYWKLWIDEPFNL [FAS1] | 3.39 ± 0.086 | 3.25 ± 0.078 | 2.76 ± 0.12 | 2.91 ± 0.075
20 | RILKNVSPNDNNSANNN [YMR153W/NUP53] | 2.75 ± 0.052 | 2.42 ± 0.048 | 2.29 ± 0.054 | 2.59 ± 0.044
21 | RILNFFDKNTKTTPNTA [YMR153W/NUP53] | 2.42 ± 0.051 | 2.53 ± 0.055 | 2.56 ± 0.048 | 2.43 ± 0.047
22 | RINSTDEDLHEFQIEDA [SRB8] | 2.86 ± 0.14 | 2.87 ± 0.078 | 2.86 ± 0.12 | 3.22 ± 0.2
23 | RITDASLFQLSKLGKNL [GRR1] | 2.38 ± 0.045 | 2.55 ± 0.05 | 2.12 ± 0.061 | 2.51 ± 0.036
24 | RITKSNEKSQAEQEKAK [LRP1] | 1.9 ± 0.075 | 1.33 ± 0.067 | 1.48 ± 0.18 | 1.25 ± 0.14
25 | RKDKDAKFRLILIESRI [RPS13] | 1.52 ± 0.094 | 1.82 ± 0.12 | 1.9 ± 0.11 | 2.57 ± 0.11
26 | RKEWFDIKAPSTFENRN [RPS1A] | 1.95 ± 0.093 | 2.46 ± 0.07 | 1.77 ± 0.098 | 3.02 ± 0.06
27 | RKIKRLEKFLQGRDTSK [SRP72] | 2.79 ± 0.1 | 2.16 ± 0.059 | 2.14 ± 0.12 | 2.76 ± 0.048

Row | Sequence | protein stability index (doa10∆) | protein stability index (pdr5∆) | protein stability index (san1∆) | protein stability index (ubr1∆)
28 | RKPMGKRINFEKIKDIH [POP1] | 2.67 ± 0.051 | 3.12 ± 0.05 | 3.04 ± 0.065 | 2.87 ± 0.038
29 | RKTLKEKAIPKDQRATT [RPO26] | 3.06 ± 0.057 | 3.18 ± 0.064 | 3.04 ± 0.049 | 3.31 ± 0.07
30 | RLAEFKRRKLDLNNAVQ [SMC4] | 3.28 ± 0.27 | 2.87 ± 0.12 | 2.98 ± 0.067 | 2.96 ± 0.078
31 | RLANLIDYKLRVLTQDG [SMB1] | 2.65 ± 0.089 | 2.69 ± 0.08 | 1.62 ± 0.13 | 2.79 ± 0.047
32 | RLDILDPALLRPGRIDR [RPT6] | 2.79 ± 0.22 | – | 2.65 ± 0.12 | –
33 | RLGSEADAKAFLDSMAQ [FAS2] | 3.38 ± 0.091 | 3.44 ± 0.081 | 3.21 ± 0.062 | 3.33 ± 0.11
34 | RLLAKDAMIAQRSKKIQ [DIS3] | 1.24 ± 0.1 | 1.92 ± 0.091 | 1.41 ± 0.072 | 1.59 ± 0.069
35 | RLLEKSELPDIYSRDIG [SNF2] | 3.12 ± 0.14 | 3.37 ± 0.13 | 2.96 ± 0.084 | 3.21 ± 0.17
36 | RLNPYAKVFAAEKLGSK [RPL4A] | 2.09 ± 0.14 | – | – | –
37 | RLQFAQGSVRRLTVSAR [QCR2] | 1.33 ± 0.075 | 1.39 ± 0.13 | 1.77 ± 0.27 | 1.14 ± 0.073
38 | RLQQQQAQAQAQANNNN [GAL11] | 2.03 ± 0.093 | 2.55 ± 0.078 | 2.74 ± 0.076 | 2.04 ± 0.06
39 | RMAKLCARFLGNRGFSI [RPO31] | 2.35 ± 0.2 | – | – | 2.93 ± 0.2
40 | RMKQYLKTKLLEEVEGS [RPB7] | 3.09 ± 0.13 | 3.09 ± 0.1 | 3.11 ± 0.088 | 3.24 ± 0.13
41 | RMVRSIMWQLLDGVSYL [SSN3] | 1.27 ± 0.078 | 1.26 ± 0.1 | 1.18 ± 0.12 | 1.34 ± 0.1
42 | RNARAARAAKIAPRPLD [RPL13B] | 2.86 ± 0.12 | 3.11 ± 0.09 | 3.14 ± 0.074 | 2.45 ± 0.056
43 | RNESLKNNSSIRNVIMS [SRB8] | 1.81 ± 0.035 | 2.11 ± 0.049 | 1.87 ± 0.084 | 2.09 ± 0.039
44 | RNLDSATLKEIKSIIEQ [SMC3] | 3.25 ± 0.078 | 3.51 ± 0.087 | 3.2 ± 0.066 | 3.21 ± 0.068
45 | RNNSKSVLLKKLGSVRV [SRP72] | – | 1.33 ± 0.11 | – | 1.69 ± 0.087
46 | RNQRKGAGSIFTSHTRL [RPL2A] | 2.03 ± 0.054 | 3.12 ± 0.067 | 2.73 ± 0.05 | 3.09 ± 0.059
47 | RNSVKLLSKLLLKHPFK [YCS4] | 2.41 ± 0.042 | 2.1 ± 0.038 | 1.92 ± 0.056 | 2.07 ± 0.04
48 | RPLQKIMLLQLELGSCF [SIN4] | 1.41 ± 0.058 | 1.54 ± 0.065 | 1.79 ± 0.1 | 1.42 ± 0.061
49 | RPYGVGLLIIGYDKSGA [PRE5] | 1.68 ± 0.12 | 1.08 ± 0.14 | – | 1.06 ± 0.12
50 | RQGLIHQGSGGSVMSAS [SMC3] | 2.75 ± 0.091 | 3.14 ± 0.062 | 2.53 ± 0.086 | 2.69 ± 0.067
51 | RQGRSNRRGMLALSGTS [SNF5] | 2.89 ± 0.068 | 2.97 ± 0.057 | 2.81 ± 0.058 | 2.74 ± 0.051
52 | RQILFKYPMYMQLEEEL [MED6] | 2.18 ± 0.064 | 2.25 ± 0.069 | 2.37 ± 0.12 | 1.72 ± 0.062
53 | RQKKKPTSAQKSAVSHA [IRR1] | 1.34 ± 0.24 | – | – | 1.56 ± 0.15
54 | RQLAGAIGYEPLSLTHR [DIS3] | 2.94 ± 0.057 | 2.87 ± 0.057 | 2.86 ± 0.07 | 2.93 ± 0.041
